From patent publication US20190248907A1 (published 2019)

How the values were obtained:
bp.CS06xB10v5 = assay: -; apparent KD
o.a. B10v5 = assay: -; apparent KD

B1: hu c-Met (receptor)
chain: ECKEALAKSEMNVNMKYQLPNFTAETPIQNVILHEHHIFLGATNYIYVLNEEDLQKVAEYKTGPVLEHPDCFPCQDCSSKANLSGGVWKDNINMALVVDTYYDDQLISCGSVNRGTCQRHVFPHNHTADIQSEVHCIFSPQIEEPSQCPDCVVSALGAKVLSSVKDRFINFFVGNTINSSYFPDHPLHSISVRRLKETKDGFMFLTDQSYIDVLPEFRDSYPIKYVHAFESNNFIYFLTVQRETLDAQTFHTRIIRFCSINSGLHSYMEMPLECILTEKRKKRSTKKEVFNILQAAYVSKPGAQLARQIGASLNDDILFGVFAQSKPDSAEPMDRSAMCAFPIKYVNDFFNKIVNKNNVRCLQHFYGPNHEHCFNRTLLRNSSGCEARRDEYRTEFTTALQRVDLFMGQFSEVLLTSISTFIKGDLTIANLGTSEGRFMQVVVSRSGPSTPHVNFLLDSHPVSPEVIVEHTLNQNGYTLVITGKKITKIPLNGLGCRHFQSCSQCLSAPPFVQCGWCHDKCVRSEECLSGTWTQQICLPAIYKVFPNSAPLEGGTRLTICGWDFGFRRNNKFDLKKTRVLLGNESCTLTLSESTMNTLKCTVGPAMNKHFNMSIIISNGHGTTQYSTFSYVDPVITSISPKYGPMAGGTLLTLTGNYLNSGNSRHISIGGKTCTLKSVSNSILECYTPAQTISTEFAVKLKIDLANRETSIFSYREDPIVYEIHPTKSFISGGSTITGVGKNLNSVSVPRMVINVHEAGRNFTVACQHRSNSEIICCTTPSLQQLNLQLPLKTKAFFMLDGILSKYFDLIYVHNPVFKPFEKPVMISMGNENVLEIKGNDIDPEAVKGEVLKVGNKSCENIHLHSEAVLCTVPNDLLKLNSELNIEWKQAISSTVLGKVIVQPDQNFT
- Kd (bp.CS06xB10v5): 0.0196 nM
- Kd (o.a. B10v5): 0.417 nM
